PMC3212078, “Atomic Force Microscopy Study of Protein–Protein Interactions in the Cytochrome CYP11A1 (P450scc)-Containing Steroid Hydroxylase System” (Nanoscale Research Letters, 2010)

How the values were obtained:
[1] = biological target: T1, cytochrome CYP11A1 (P450scc) (bovine, UniProt P00189 40-520); experiment: SPR; Biacore 3000; about 400 RU Ad coupled by EDC/NHS to a CM5 chip; monomeric (Emulgen 913-monomerized) CYP11A1 injected at 1-100 nM; 50 mM potassium phosphate pH 7.4 with 1% Emulgen 913; 1:1 Langmuir model; settings: both partners purified
T1 construct: The same protein was used either untreated (oligomeric, non-monomerized) or after incubation with 4-12% Emulgen 913 (monomerized); the assays tell the two states apart; also called CYP11A1mon; monomerized CYP11A1; source: isolated from bovine adrenal glands
T1 sequence (looked up): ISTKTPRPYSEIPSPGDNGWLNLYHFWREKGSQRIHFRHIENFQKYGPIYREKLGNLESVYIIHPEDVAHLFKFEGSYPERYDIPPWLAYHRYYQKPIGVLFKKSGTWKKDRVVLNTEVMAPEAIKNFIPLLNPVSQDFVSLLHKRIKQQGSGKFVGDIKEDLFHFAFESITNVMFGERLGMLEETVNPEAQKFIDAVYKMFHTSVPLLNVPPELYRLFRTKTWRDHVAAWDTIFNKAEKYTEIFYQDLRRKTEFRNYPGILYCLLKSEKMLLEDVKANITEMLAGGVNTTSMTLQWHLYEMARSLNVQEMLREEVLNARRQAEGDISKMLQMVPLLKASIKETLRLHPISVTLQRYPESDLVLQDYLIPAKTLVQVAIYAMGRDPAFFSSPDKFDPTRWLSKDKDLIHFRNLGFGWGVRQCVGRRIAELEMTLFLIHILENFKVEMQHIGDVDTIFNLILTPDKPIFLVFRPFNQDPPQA

[2] = biological target: T1, cytochrome CYP11A1 (P450scc); experiment: SPR; Biacore 3000; about 400 RU Ad coupled by EDC/NHS to a CM5 chip; oligomeric (non-monomerized) CYP11A1 injected at 1-100 nM; 50 mM potassium phosphate pH 7.4 with 1% Emulgen 913; 1:1 Langmuir model; settings: both partners purified

- Kd [1]: 170 ± 15 nM
- koff [1]: 0.05 ± 0.005 s⁻¹
- kon [1]: 290000 M⁻¹ s⁻¹
- Kd [2]: 210 ± 20 nM
- koff [2]: 0.09 ± 0.009 s⁻¹
- kon [2]: 420000 M⁻¹ s⁻¹
B1: adrenodoxin (natural protein, UniProt P00257 59-186, looked up)
chain: SSSEDKITVHFINRDGETLTTKGKIGDSLLDVVVQNNLDIDGFGACEGTLACSTCHLIFEQHIFEKLEAITDEENDMLDLAYGLTDRSRLGCQICLTKAMDNMTVRVPDAVSDARESIDMGMNSSKIE
notes: adrenodoxin (Ad), recombinant; source: E. coli BL21DE3, purified after sonification
